The numbers were not newly measured in article PMC8654464, which cites them from elsewhere.

The series addresses SARS-CoV-2 spike protein RBD (Severe acute respiratory syndrome coronavirus 2) (UniProt P0DTC2).

As for regdanvimab, the Kd (commonly the free concentration of one partner at which half of the binding sites on the other are occupied at equilibrium, for simple one-to-one binding) was 0.065 nM.
